# Measured values as given in patent publication US12127562B2, “Methods and compositions that increase pesticidal activity for FR901228” (PRO FARM GROUP, INC., priority 2020, dated 2024).
# “Also recorded” adds a separate entry of the source. Read-outs that look alike come from different tables or passages of the source.
# Tested on: Beet army worm (Spodoptera exigua)
# Experiment: Beet army worm diet overlay assay (insecticidal activity)
# Type: in vivo
# Conditions: for LC50: Spodoptera exigua, MW 540 concentration 50 μg/mL, protein concentration 0 mg/mL; for LC50 (μg/mL MW 540): Table 4, heated, MW 540 concentration 0 μg/mL, protein concentration 5 mg/mL; for insecticidal activity (in words): text summary, compared to MW 540 alone
# From the text: The present inventors evaluated whether these two proteins can form conjugates with MW 540 and whether the conjugate has the same insecticidal activity as MW 540 alone. One skilled in the art knows that protein purification often uses polyhistidine-tags to assist with the concentration and removal of desired proteins from cellular material. The two protein sequences were cloned into an expression vector (pET26b(+)) and over-expressed in E. coli BL21 cells with a His tag added to the C-terminus of the sequence. In other words, His-tagged HtpG and DnaK from B. rinojensis A396 were overexpressed in E. coli and were purified by immobilized metal ion affinity chromatography.
# After mixing MW 540 with HtpG and/or DnaK, heat was applied to the mixture to from disulfide bond conjugates and the end-product was evaluated and its insecticidal activity determined.
# Table 1's numbers are expressed as protein concentrations as μg/mL. Subsequently, the insecticidal activity of the end products was evaluated using Beet army worm diet overlay assay known in the art.
molecule,measurement,setting,value
"C/C=C1\NC(=O)[C@H]2CSSCC/C=C/[C@H](CC(=O)N[C@H](C(C)C)C(=O)N2)OC(=O)[C@H](C(C)C)NC1=O [MW 540, romidepsin, reference compound]",LC50,"read-out: LC50 (μg/mL MW 540), Table 2",0.27 µg/mL
same,LC50,"read-out: LC50 (μg/mL MW 540), Table 3",0.35 µg/mL
same,LC50,"read-out: LC50 (μg/mL MW 540), Table 4, unheated",0.43 µg/mL
"DnaK: Chaperone protein DnaK from Burkholderia rinojensis A396 (SEQ ID No. 2), His-tagged, overexpressed in E. coli (protein, His tag; Burkholderia rinojensis A396) MGKIIGIDLGTTNSCVAVMEGNQVKVIENSEGARTTPSIIAYMDDNEVLVGAPAKRQSVTNPRNTLFAVKRLIGRRFEEKEVQKDIGLMPYAIIKADNGDAWVEAHGDKLAPPQVSAEVLRKMKKTAEDYLGEPVTEAVITVPAYFNDSQRQATKDAGRIAGLEVKRIINEPTAAALAFGLDKAEKGDRKIAVYDLGGGTFDVSIIEIADVDGEMQFEVLSTNGDTFLGGEDFDQRIIDYIIGEFKKEQGVDLSKDVLALQRLKEAAEKAKIELSSGQQTEINLPYITADASGPKHLNLKITRAKLEALVEELVERTIEPCRIAIKDAGVKVSDIDDVILVGGQTRMPKVLEKVKEFFGKDPRRDVNPDEAVAVGAAIQGQVLSGDRKDVLLLDVTPLSLGIETLGGVMTKMINKNTTIPTKHAQVYSTADDNQGAVTIKVFQGEREMAAGNKLLGEFNLEGIPPAPRGVPQIEVTFDIDANGILHVGAKDKATGKENKITIKANSGLSEAEIDQMIKDAEANAAEDHKLRELADSRNQGDALVHSTKKAVAEYGDKLDAGEKDKIEAALKELEDVLKNTSADKAAIDAKIEALSTASQKLGEKMYADMQAQQAGAAGAAGAAEGAAHGGAQQADDVVDADFKEVKKD",LC50 (μg/mL MW 540),,No Activity
same,insecticidal activity (in words),,does not exhibit insecticidal activity; also recorded: did not show insecticidal activity
"HtpG: Chaperone protein HtpG from Burkholderia rinojensis A396 (SEQ ID No. 1), His-tagged, overexpressed in E. coli (protein, His tag; Burkholderia rinojensis A396) MTQQTMSFQAEVKQLLHLMIHSLYSNKEIFLRELVSNASDAADKLRFEALENGALYENDPNLRIRIGFDPAARTLTIDDNGIGMSRDEAIANLGTIARSGTKEFFSKLSGDQQKDAALIGQFGVGFYSGFIVADRITVETRRAGLPASEGVRWESGGEGDFSIDAIERAARGTTITLHLREGEDELLSAHRLKSIVRKYSDHVALPILMQQEAWDAEKGEMVAKDEDETVNQASALWTRAKSEITDEQYQQFYQHLAHDHQNPLAWTHNRVEGRSEYTQLLYVPSHAPFDLWNRDYRGGLKLYVKRVFIMDDAEQLLPQYLRFVKGVVDSADLPLNVSREILQESRDVKAIREGVTKRALSMLEELANAEDDAGKEQYRTFWSAFGQVLKEGVGEDQANRERVAKLVRFASTHGGTDAQDVSLADYVARMKPEQTRIYYVTADTWQAATHSPHLEVFRKKGVEVLLLTDRVDEWMLSYLQEFDGKPLASVARGDLDLGALDDAEKKAQEETGEAFKPLVEKMKEALGDKAKDVRVTFRLTDSPSCLVADDHDMSGYLQRMLKAAGQSGPAMQPILEVNPEHPLVKQLQADSPEFGDWCHLLFDQALLAEGGALEDPASFVKRTNTLLLSRAA",LC50 (μg/mL MW 540),,No Activity
same,insecticidal activity (in words),,did not show insecticidal activity
same,insecticidal activity (in words),listed as HtPG,does not exhibit insecticidal activity
